Source: the supplement of paper PMC12042874
± gives the uncertainty stated by the source.

Assay: amyloid nucleation score (Sup35N fusion, yeast selection) (log enrichment); library NNK3; higher = more nucleation; inactive = no reads after selection
How it was run: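 The nucleation score is the DiMSum log enrichment of output over input reads, centred on the mode score of non-aggregating sequences. Only sequences with 100 or more input reads were scored, using Illumina sequencing of input and output plasmid inserts. Psi-negative yeast expressing Sup35N fused to peptides of 20 random codons were induced 24 hours with 100 μM copper sulfate and grown 7 days at 30°C on medium lacking adenine and uracil.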

| Substance | amyloid nucleation score |
| --- | --- |
| ECDHSCGRWNWIN | inactive |
| ILFRYFISGMVVWGDNMENE | inactive |
| IYDCFVTGSFLRK | inactive |
| FAGDLRDCWFLSFV | inactive |
| LYTNGIFYWQMGYLKVWQGI | inactive |
| MQTNCFRMAVYFAQVRLS | inactive |
| RSNTQGLPQYKC | inactive |
| TCSKVFQYG | inactive |
| MPYDFPVVHNIDFFG | inactive |
| TIPFRAINPVSM | inactive |
| PYIRNYSCSGSNQYLWDTSD | inactive |
| LLVYFE | inactive |
| FMGSGQVVNTRASGIMGLFF | inactive |
| RGAGSTESLTNGRGSIAIHR | inactive |
| PDAVTILGGVYHVVQSWG | inactive |
| NCWVNKIDVFLAESSMQCKA | inactive |
| YPSSPGH | inactive |
| STMLSYAVWALDMVFSYKVY | -0.509 ± 0.84 |
| TRFVTRNDMYLRYILVCRVA | inactive |
| YALYCVFTGNSWQSVLRHRY | 1.32 ± 0.095 |
| SNYVKKQIALS | inactive |
| TQDGELV | inactive |
| CVTVNIELLTWITACGNFTL | 1.62 ± 0.075 |
| FLRCIC | inactive |
| IFRSHMQSLGK | inactive |
| ATFYSFLRFKQINNRNNEAF | inactive |
| GCFNGNSYRSLPFWFMSTCL | inactive |

| Substance | amyloid nucleation score |
| --- | --- |
| FGLEFWTYTSIRFWLEYKPH | 0.972 ± 0.099 |
| LARHSCSSNVYGNLQRTFFG | inactive |
| GGSIVVCLRHHRDLSMHSWD | inactive |
| VVRIGSRACGLRRKVCGGFG | inactive |
| LNIFTYMCVMALMCLEKITS | 1.73 ± 0.11 |
| ELVQKGHGIEWERHGVLFGE | inactive |
| GLIDLRVCEGRQFARTGSEM | 0.132 ± 0.36 |
| LEEDVHISFHHIFDRFCPTT | inactive |
| LNYIIRRLIVIILFSQHQYY | inactive |
| WVVEQVDLLSGMVIGLKNSR | inactive |
| ASHDKGFYLGSCTYLYGLRL | inactive |
| CSPGTSCFGIKPRSSLSTTI | inactive |
| SVFFPVEFTFRVGETLCCFF | 3.01 ± 0.062 |
| NLIFRFPLAIKWSLFSLDCL | inactive |
| RSYVTILDAFSWIM | -0.239 ± 0.66 |
| RWWVMLLLVRWKRHQDTAYV | inactive |
| LCSRRSGMVRIWIVSSARLY | inactive |
| GPDYHKHYRTYLPRTAFVGF | 1.27 ± 0.17 |
| CNGLFIGPML | inactive |
| KYFIINYSVSSNGRKAHYCQ | 2.28 ± 0.065 |
| NNTEHS | inactive |
| SLSMATFKAILSLFADTWWR | inactive |
| WIFCLVAIFRTEVDMTNYFT | 0.355 ± 0.69 |
| AFYFNEMYRLVLMGTM | inactive |
| VDSSRIKCSNVN | inactive |
| KCKFNWVCEVVR | inactive |
| TGYAFFHEAS | inactive |

| Substance | amyloid nucleation score |
| --- | --- |
| VLAMCVYSACMWFGNNAMLH | inactive |
| NRKNTKHLIFFYVFVT | inactive |
| KLCYTASEWSGNSLNVVRNK | inactive |
| MPNYNLSGLNWVRCG | inactive |
| KALSSDPTICFRRAFIVHCK | inactive |
| RPFNHVDISYAKPLDNFWM | -0.582 ± 0.98 |
| RAFLPYYAGYEDRTQSWL | inactive |
| PDLRLMVVCASYPGSATRAM | inactive |
| NFWNWLHNPWAPM | inactive |
| SLQISLRYKVIMQRMP | 1.24 ± 0.16 |
| DNLTVTFRCLHAYLGGLDFD | inactive |
| RVGSACNRNSLRKESCTPVQ | inactive |
| NMTVSHWGLTMSRL | 1.26 ± 0.11 |
| NVIYFHTQGMY | inactive |
| AFQLVHSWSFVGGTRALAVT | inactive |
| VDNSFEYIWDLFTVDHMSGA | inactive |
| SFGMCTMYFYLNVCMAKGAR | inactive |
| VGVFSIMV | inactive |
| FGTNVPISNLIKEVLYIRYS | inactive |
| CLLPFTTGYDFFLHQIEGWG | inactive |
| KVFNTL | inactive |
| PHAYTVIDSSRFRPKERLCG | inactive |
| NRKGIR | -0.009 ± 0.58 |
| ISPAESFPSSPERIHIVD | -0.789 ± 0.9 |
| RTIRFRFIGWWLAIAEDCRG | inactive |
| STWLSNWYY | -0.759 ± 1.1 |
